Laboratory results taken from article PMC12397995 (Blood, 2025).

T1: Factor VIIa (UniProt P08709 61-212; P08709 213-466, gamma-carboxyglutamate (γ35 printed; GLA domain))
T1 sequence (looked up) 1: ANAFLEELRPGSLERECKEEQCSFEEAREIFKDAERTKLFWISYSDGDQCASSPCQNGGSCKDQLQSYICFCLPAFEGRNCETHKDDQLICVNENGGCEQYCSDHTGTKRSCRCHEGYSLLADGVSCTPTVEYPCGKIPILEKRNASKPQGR
T1 sequence (looked up) 2: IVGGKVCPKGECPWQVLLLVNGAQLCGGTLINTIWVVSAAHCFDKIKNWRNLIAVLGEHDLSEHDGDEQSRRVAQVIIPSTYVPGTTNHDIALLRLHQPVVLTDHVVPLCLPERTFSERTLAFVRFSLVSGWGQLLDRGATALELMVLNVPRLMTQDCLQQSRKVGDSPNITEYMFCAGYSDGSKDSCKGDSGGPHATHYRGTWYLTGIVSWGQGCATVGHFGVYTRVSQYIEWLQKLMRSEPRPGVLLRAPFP

B1: Fab fragment of the non-inhibitory anti-TF antibody 10H10 (Fab, V domains shown)
VH: QVHLQQSGAELMKPGASVKISCKASGYTFITYWIEWVKQRPGHGLEWIGDILPGSGSTNYNENFKGKATFTADSSSNTAYMQLSSLTSEDSAVYYCARSGYYGNSGFAYWGQGTLVTVSA
VL: DIVMTQSPSSLTVTAGEKVTMSCKSSQSLLSSGNQKNYLTWYQQIPGQPPKLLIYWASTRESGVPDRFTGSGSGTDFTLTINSVQAEDLAVYYCQNDYTYPLTFGAGTKLELK
B2: Recombinant, membrane-anchored tissue factor (TF residues 3–244) fused to E. coli maltose-binding protein (receptor, UniProt P13726 35-276, looked up)
chain: TTNTVAAYNLTWKSTNFKTILEWEPKPVNQVYTVQISTKSGDWKSKCFYTTDTECDLTDEIVKDVKQTYLARVFSYPAGNVESTGSAGEPLYENSPEFTPYLETNLGQPTIQSFEQVGTKVNVTVEDERTLVRRNNTFLSLRDVFGKDLIYTLYYWKSSSSGKKTAKTNTNEFLIDVDKGENYCFSVQAVIPSRTVNRKSTDSPVECMGQEKGEFREIFYIIGAVVFVVIILVIILAISLHK

Legend:
[1] = target: Recombinant, membrane-anchored tissue factor (TF residues 3–244) fused to E. coli maltose-binding protein (UniProt P13726); test: cryo-EM structure
[2] = target: T1, Factor VIIa; test: cryo-EM structure

| Binder | binding result [1] | binding result [2] |
| --- | --- | --- |
| B1 | binds | – |
| B2 | – | binds |
